Measurements published in US10662235B2, “Cysteine engineered fibronectin type III domain binding molecules” (Janssen Biotech, Inc., priority 2016, dated 2020).

Assay: Thermal stability by differential scanning calorimetry
Assay type: physicochemical
Details: c-Met-binding FN3 domains, DSC in PBS
Procedure: The thermal stability of cysteine-NEM conjugates was assessed by differential scanning calorimetry (DSC). The only the conjugates tested were those determined to express at high levels, conjugate efficiently, and retain EGFR binding. Additionally, cysteine variants within the BC and FG loops were excluded. Stability data was generated by heating a 400 μL aliquot of the variant from 25° C. to 100° C. at a scan rate of 1° C. per minute in a VP-DSC instrument (MicroCal). A second identical scan was completed on the sample in order to assess the reversibility of thermal folding/unfolding. Data was fitted to a 2-state unfolding model in order to calculate the melting temperature (Table 10).
Thermal Stability of c-Met-Binding FN3 Domains Differential scanning calorimetry in PBS was used to assess the stability of each FN3 domain.

Row | Molecule | Thermal Stability (Tm, C.) [C.]
1 | P114AR7P92-G8: c-Met-binding FN3 domain, SEQ ID NO: 36 (protein, c-Met binding FN3 domain) LPAPKNLVVSRVTEDSARLSWTAPDAAFDSFVIRYFEFLGSGEAIVLTVPGSERSYDLTGLKPGTEYVVQILGVKGGYISIPLSAIFTT | 90.9
2 | P114AR7P93-G8: c-Met-binding FN3 domain, SEQ ID NO: 39 (protein, c-Met binding FN3 domain) LPAPKNLVVSRVTEDSARLSWTAPDAAFDSFWIRYFEFLGSGEAIVLTVPGSERSYDLTDLKPGTEYGVTINGVKGGRVSTPLSAIFTT | 76.8
3 | P114AR7P95-G7: c-Met-binding FN3 domain, SEQ ID NO: 48 (protein, c-Met binding FN3 domain) LPAPKNLVVSRVTEDSARLSWTAPDAAFDSFWIRYFELLSTGEAIVLTVPGSERSYDLTGLKPGTEYVVNIMGVKGGSISPPLSAIFTT | 87.2
4 | P114AR7P95-H8: c-Met-binding FN3 domain, SEQ ID NO: 49 (protein, c-Met binding FN3 domain) LPAPKNLVVSRVTEDSARLSWTAPDAAFDSFWIRYFEFVSKGEAIVLTVPGSERSYDLTGLKPGTEYVVNIMGVKGGSISPPLSAIFTT | 83
5 | P114AR7P94-A3: c-Met-binding FN3 domain, SEQ ID NO: 41 (protein, c-Met binding FN3 domain) LPAPKNLVVSRVTEDSARLSWTAPDAAFDSFWIRYFEFLGSGEAIVLTVPGSERSYDLTGLKPGTEYVVNIMGVKGGKISPPLSAIFTT | 86.2
6 | P114AR7P95-D4: c-Met-binding FN3 domain, SEQ ID NO: 45 (protein, c-Met binding FN3 domain) LPAPKNLVVSRVTEDSARLSWTAPDAAFDSFWIRYFEFLGSGEAIVLTVPGSERSYDLTGLKPGTEYVVQILGVKGGYISIPLSAIFTT | 85.3
7 | P114AR7P93-H9: c-Met-binding FN3 domain, SEQ ID NO: 40 (protein, c-Met binding FN3 domain) LPAPKNLVVSRVTEDSARLSWTAPDAAFDSFWIRYFEFLGSGEAIVLTVPGSERSYDLTGLKPGTEYVVQIIGVKGGHISLPLSAIFTT | 88.2
8 | P114AR7P92-H5: c-Met-binding FN3 domain, SEQ ID NO: 37 (protein, c-Met binding FN3 domain) LPAPKNLVVSRVTEDSARLSWTAPDAAFDSFWIRYLEFLLGGEAIVLTVPGSERSYDLTGLKPGTEYVVQIMGVKGGTVSPPLSAIFTT | 87
9 | P114AR7P95-F10: c-Met-binding FN3 domain, SEQ ID NO: 47 (protein, c-Met binding FN3 domain) LPAPKNLVVSRVTEDSARLSWTAPDAAFDSFWIRYFEFTTAGEAIVLTVPGSERSYDLTGLKPGTEYVVNIMGVKGGSISPPLSAIFTT | 85.2
10 | P114AR7P94-E5: c-Met-binding FN3 domain, SEQ ID NO: 42 (protein, c-Met binding FN3 domain) LPAPKNLVVSRVTEDSARLSWTAPDAAFDSFWIRYFEFLGSGEAIVLTVPGSERSYDLTGLKPGTEYAVNIMGVKGGRVSVPLSAIFTT | 80
